The values below are quoted from earlier work in article PMC10793677.

As a reminder, the Kd is a measure of binding affinity in units of concentration.

Data set [1] has as its target CD73 (Mus musculus) (UniProt Q61503). The experiment in a line: flow cytometry and SPR. (In flow cytometry, cells or beads pass a laser one at a time.)
Data set [2] has as its target CD73 (Homo sapiens) (UniProt P21589). The data set is described as follows: flow cytometry and SPR.
Chain of UniProt P21589 (P21589 27-549): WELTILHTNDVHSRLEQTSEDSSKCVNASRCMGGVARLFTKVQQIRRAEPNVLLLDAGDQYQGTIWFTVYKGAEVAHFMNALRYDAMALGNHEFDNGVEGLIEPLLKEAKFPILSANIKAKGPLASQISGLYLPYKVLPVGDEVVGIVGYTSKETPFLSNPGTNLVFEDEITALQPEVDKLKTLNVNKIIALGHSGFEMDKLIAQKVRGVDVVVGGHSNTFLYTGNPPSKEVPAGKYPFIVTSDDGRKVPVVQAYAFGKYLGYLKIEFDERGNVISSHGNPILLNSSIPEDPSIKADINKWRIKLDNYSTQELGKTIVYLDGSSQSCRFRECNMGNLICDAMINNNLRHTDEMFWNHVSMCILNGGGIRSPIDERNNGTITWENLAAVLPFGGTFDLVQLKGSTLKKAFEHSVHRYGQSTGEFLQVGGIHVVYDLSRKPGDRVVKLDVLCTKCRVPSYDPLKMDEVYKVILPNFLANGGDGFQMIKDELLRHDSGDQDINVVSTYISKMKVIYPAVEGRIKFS

Chain of UniProt Q61503 (Q61503 29-551): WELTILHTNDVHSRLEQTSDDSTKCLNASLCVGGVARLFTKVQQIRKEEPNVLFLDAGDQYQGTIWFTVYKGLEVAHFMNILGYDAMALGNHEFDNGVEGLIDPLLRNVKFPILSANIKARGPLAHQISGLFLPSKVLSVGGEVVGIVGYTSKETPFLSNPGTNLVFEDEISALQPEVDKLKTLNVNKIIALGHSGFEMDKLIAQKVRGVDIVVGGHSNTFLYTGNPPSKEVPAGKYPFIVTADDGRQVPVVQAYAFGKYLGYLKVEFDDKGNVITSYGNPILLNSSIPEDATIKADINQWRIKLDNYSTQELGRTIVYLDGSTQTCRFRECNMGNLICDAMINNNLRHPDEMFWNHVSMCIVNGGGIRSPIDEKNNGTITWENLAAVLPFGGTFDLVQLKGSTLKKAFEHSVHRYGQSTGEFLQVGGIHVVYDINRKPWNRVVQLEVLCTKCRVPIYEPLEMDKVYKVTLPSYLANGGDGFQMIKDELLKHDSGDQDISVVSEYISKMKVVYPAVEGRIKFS

With Oleclumab, the Kd was 0.113 nM in data set [1] and 0.154 nM in data set [2].
